The values below come from the supplement of paper PMC10724198.

± gives the standard deviation of the averaged measurements.

For the series, the system named is Saccharomyces cerevisiae. The series can be described thus: protein stability index of tFT-peptide fusion (C-terminal peptide) (PSI (0-1 scale)); higher = more stable (slower turnover). The conditions noted are these: temperature: 30 C. Here is the method:
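MPS profiling in S. cerevisiae of the yeast C-terminome library: the last 12 aa of each annotated ORF are fused to the C-terminus of a sfGFP-mCherry timer, after a GGGS linker. Cells are FACS-sorted into 8 mCherry/sfGFP bins and deep-sequenced. PSI runs from 0 (unstable) to 1 (stable); wild type and das1Δ backgrounds, two technical replicates each.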

[1] abbreviates: genetic background: das1 deletion.

Regarding TASTSNSRNQTM [SPO71 C-terminal 12 aa], the protein stability index is 0.701 ± 0.03 under setting [1] and 0.687 ± 0.038 (genetic background: wild type). The corresponding values for TASYLKDAVYLH [ATP6 C-terminal 12 aa] are 0.699 ± 0.031 and 0.703 ± 0.025.

For the sequence TCVYKKPERHKA [TCM62 C-terminal 12 aa], the protein stability index is, setting by setting: under setting [1], 0.707 ± 0.03; (genetic background: wild type) 0.701 ± 0.024.

In the case of TDNTVDKFDFYK [RPT3 C-terminal 12 aa], the protein stability index was 0.711 ± 0.016 under setting [1] and 0.71 ± 0.013 (genetic background: wild type). TDVVLCARLADD [RIB7 C-terminal 12 aa]: the protein stability index by setting is: under setting [1], 0.676 ± 0.014; (genetic background: wild type) 0.7 ± 0.038. The corresponding values for TEFGITKENLGE [TOG1 C-terminal 12 aa] are 0.697 ± 0.03 and 0.691 ± 0.032. For “TEIPYKPFTRQP [YOR293C-A C-terminal 12 aa]”, the protein stability index came to 0.724 ± 0.0085 under setting [1] and 0.739 ± 0.013 (genetic background: wild type). The corresponding values for TFHTVGDRYEMA [YPR127W C-terminal 12 aa] are 0.7019 ± 0.006 and 0.69654 ± 0.00054. Regarding TGKVFTRTNQSK [YFL019C C-terminal 12 aa], the protein stability index is, setting by setting: under setting [1], 0.71 ± 0.035; (genetic background: wild type) 0.698 ± 0.011.

As to THNEGSSVKKMH [SLC1 C-terminal 12 aa], the protein stability index was found to be 0.694 ± 0.045 under setting [1] and 0.674 ± 0.037 (genetic background: wild type).

On to THPAGTLENATQ [YIL102C C-terminal 12 aa], for which the protein stability index under setting [1] turned out to be 0.694 ± 0.022 and the protein stability index (genetic background: wild type) turned out to be 0.742 ± 0.017.

For the sequence TISNPFGDHNKI [LSB5 C-terminal 12 aa], the protein stability index was determined as 0.727 ± 0.034 under setting [1] and 0.738 ± 0.099 (genetic background: wild type).

As to TKAVHINLSLDN [ALD2 C-terminal 12 aa], the protein stability index was 0.69 ± 0.0043 under setting [1] and 0.702 ± 0.015 (genetic background: wild type).

Take TKEYMDSIRSAK [VPS45 C-terminal 12 aa]: the protein stability index reads like this: under setting [1], 0.687 ± 0.023; (genetic background: wild type) 0.766 ± 0.099. The corresponding values for TKKSTGKGPASS [BOL3 C-terminal 12 aa] are 0.7 ± 0.033 and 0.675 ± 0.03. TLFCLLFRFIIF [YIP5 C-terminal 12 aa]: the protein stability index by setting is: under setting [1], 0.265 ± 0.0053; (genetic background: wild type) 0.2739 ± 0.001. In the case of TLGEVINELNNK [VAM6 C-terminal 12 aa], the protein stability index under setting [1] turned out to be 0.7226 ± 0.0022 and the protein stability index (genetic background: wild type) turned out to be 0.676 ± 0.011. On to TLHLVLRLRGGN [UBI4 C-terminal 12 aa], for which the protein stability index runs as follows: under setting [1], 0.665 ± 0.013; (genetic background: wild type) 0.687 ± 0.067. Consider TLSYIRVHKLVK [TYC1 C-terminal 12 aa], for which the protein stability index runs as follows: under setting [1], 0.647 ± 0.019; (genetic background: wild type) 0.493 ± 0.015. The corresponding values for “TMVERRVSFTAQ [YER119C-A C-terminal 12 aa]” are 0.73 ± 0.031 and 0.711 ± 0.022.

On to TNIIRETLKSLN [ATP22 C-terminal 12 aa], for which the protein stability index under setting [1] was 0.786 ± 0.1. As to TNNRHKYQNGRK [YLL032C C-terminal 12 aa], the protein stability index is 0.7 ± 0.053 under setting [1] and 0.664 ± 0.0094 (genetic background: wild type). For the sequence TNPHQADASPKK [MPE1 C-terminal 12 aa], the protein stability index under setting [1] was 0.71 ± 0.023 and the protein stability index (genetic background: wild type) came to 0.702 ± 0.021. As to TQKLNEKSSKES [ATC1 C-terminal 12 aa], the protein stability index reads like this: under setting [1], 0.715 ± 0.031; (genetic background: wild type) 0.644 ± 0.036.

“TSASSNFDDSFS [YCR018C-A C-terminal 12 aa]” gave a protein stability index under setting [1] of 0.6885 ± 0.0016 and a protein stability index (genetic background: wild type) of 0.717 ± 0.062. As for TSGRYASYRICM [RPB5 C-terminal 12 aa], the protein stability index was 0.6941 ± 0.0011 under setting [1] and 0.664 ± 0.011 (genetic background: wild type).

With TSIESALITLDL [MER1 C-terminal 12 aa], the protein stability index was determined as 0.682 ± 0.016 under setting [1] and 0.695 ± 0.032 (genetic background: wild type). The corresponding values for TSPRAINPKRSA [YDL114W C-terminal 12 aa] are 0.695 ± 0.021 and 0.703 ± 0.02. The corresponding values for TSSFTEAVIKRL [IDH2 C-terminal 12 aa] are 0.696 ± 0.011 and 0.6628 ± 0.0025.

TSSNPKSHQYSK [ROF1 C-terminal 12 aa]: the protein stability index is 0.717 ± 0.0022 under setting [1] and 0.689 ± 0.029 (genetic background: wild type). As for TSTNTIYATVTI [DSE2 C-terminal 12 aa], the protein stability index was determined as 0.688 ± 0.018 under setting [1] and 0.6656 ± 0.001 (genetic background: wild type). The corresponding values for TTRETPLPPIPA [TYW1 C-terminal 12 aa] are 0.609 ± 0.012 and 0.642 ± 0.015. Consider TTTEVETETAKQ [YPR063C C-terminal 12 aa], for which the protein stability index reads like this: under setting [1], 0.679 ± 0.011; (genetic background: wild type) 0.7 ± 0.027.

In the case of TTWKTTCKIFGE [YBL055C C-terminal 12 aa], the protein stability index is, setting by setting: under setting [1], 0.693 ± 0.019; (genetic background: wild type) 0.712 ± 0.008.

The sequence TVETLLKLFTKS [SLD7 C-terminal 12 aa] gave a protein stability index under setting [1] of 0.6879 ± 0.0025 and a protein stability index (genetic background: wild type) of 0.69379 ± 0.00044. In the case of “TVRKGVYMRLYY [YNL146C-A C-terminal 12 aa]”, the protein stability index was 0.668 ± 0.0024 under setting [1] and 0.634 ± 0.036 (genetic background: wild type). For the sequence TYYRRRATANSL [YMR155W C-terminal 12 aa], the protein stability index was 0.6958 ± 0.0045 under setting [1] and 0.676 ± 0.011 (genetic background: wild type). For the sequence VACCGCNMTVAY [YIL058W C-terminal 12 aa], the protein stability index reads like this: under setting [1], 0.528 ± 0.015; (genetic background: wild type) 0.533 ± 0.029.

Consider VANTTNMNMNLM [DIA1 C-terminal 12 aa], for which the protein stability index by setting is: under setting [1], 0.6954 ± 0.0035; (genetic background: wild type) 0.737 ± 0.027.

As to VDKYEAGMSITK [SWC4 C-terminal 12 aa], the protein stability index was found to be 0.688 ± 0.0058 under setting [1] and 0.671 ± 0.03 (genetic background: wild type). For the sequence “VFEISNKELFLT [YIL029W-A C-terminal 12 aa]”, the protein stability index is, setting by setting: under setting [1], 0.6922 ± 0.0023; (genetic background: wild type) 0.452 ± 0.016. For VFLKKDTDIYIC [YML084W C-terminal 12 aa], the protein stability index is, setting by setting: under setting [1], 0.63 ± 0.019; (genetic background: wild type) 0.612 ± 0.03.

VFRIVARGYVGW [BBC1 C-terminal 12 aa]: the protein stability index by setting is: under setting [1], 0.701 ± 0.04; (genetic background: wild type) 0.691 ± 0.046.

VFVTGILSTVYI [AIT1 C-terminal 12 aa] gave a protein stability index under setting [1] of 0.6444 ± 0.0011 and a protein stability index (genetic background: wild type) of 0.6108 ± 0.0049. The corresponding values for VGELDIKFDLKF [RTF1 C-terminal 12 aa] are 0.733 ± 0.018 and 0.696 ± 0.0088. Regarding VGLDDLKKLVTK [PCF11 C-terminal 12 aa], the protein stability index was found to be 0.713 ± 0.03 under setting [1] and 0.744 ± 0.099 (genetic background: wild type). Turning to VIAQIDELFEGY [THG1 C-terminal 12 aa], the protein stability index runs as follows: under setting [1], 0.726 ± 0.0083; (genetic background: wild type) 0.711 ± 0.019. The sequence VIFLFLRTIHFL [PGC1 C-terminal 12 aa] gave a protein stability index under setting [1] of 0.501 ± 0.015 and a protein stability index (genetic background: wild type) of 0.142 ± 0.0083.

Consider VIGEKGITDSSD [DMC1 C-terminal 12 aa], for which the protein stability index came out at 0.733 ± 0.023 under setting [1] and 0.721 ± 0.018 (genetic background: wild type).

For VIWDNNTKFCWF [YGR111W C-terminal 12 aa], the protein stability index is, setting by setting: under setting [1], 0.742 ± 0.0097; (genetic background: wild type) 0.73063 ± 0.00022. The corresponding values for VIWEKVYESKTK [LSM8 C-terminal 12 aa] are 0.724 ± 0.018 and 0.761 ± 0.057. The corresponding values for VIWQERETTANK [EMI1 C-terminal 12 aa] are 0.724 ± 0.033 and 0.676 ± 0.038. The corresponding values for VKHKVVSVDEDN [MPM1 C-terminal 12 aa] are 0.681 ± 0.014 and 0.6529 ± 0.001. As for VKKEPLNEESKP [MIA40 C-terminal 12 aa], the protein stability index was found to be 0.7041 ± 0.0021 under setting [1] and 0.679 ± 0.026 (genetic background: wild type). In the case of VKNSPRLLLFFI [YOL160W C-terminal 12 aa], the protein stability index turned out to be 0.673 ± 0.041 under setting [1] and 0.53 ± 0.011 (genetic background: wild type). In the case of “VKSNPQPAYTFQ [YFR012W-A C-terminal 12 aa]”, the protein stability index is, setting by setting: under setting [1], 0.679 ± 0.02; (genetic background: wild type) 0.6969 ± 2.8e-05. On to VLDDAEETKESH [ATP14 C-terminal 12 aa], for which the protein stability index reads like this: under setting [1], 0.689 ± 0.024; (genetic background: wild type) 0.67 ± 0.023. In the case of VLERVSRGAGSH [COF1 C-terminal 12 aa], the protein stability index stood at 0.7039 ± 0.0025 under setting [1] and 0.688 ± 0.036 (genetic background: wild type). Turning to VLLTAYKKLLTK [KEG1 C-terminal 12 aa], the protein stability index reads like this: under setting [1], 0.685 ± 0.021; (genetic background: wild type) 0.62079 ± 0.00024. The corresponding values for VLMKQLDEIIRK [BUD14 C-terminal 12 aa] are 0.6982 ± 0.0046 and 0.704 ± 0.058.

As for VLPTWADKVINE [SPE4 C-terminal 12 aa], the protein stability index is, setting by setting: under setting [1], 0.69 ± 0.0095; (genetic background: wild type) 0.677 ± 0.012. For the sequence VMDDIISELTNE [KRE28 C-terminal 12 aa], the protein stability index was 0.713 ± 0.019 under setting [1] and 0.687 ± 0.046 (genetic background: wild type). The corresponding values for VNQKQPPPQSYV [YEL067C C-terminal 12 aa] are 0.7165 ± 0.00072 and 0.7048 ± 0.00045. The corresponding values for VPLESTKRQPLH [YBR053C C-terminal 12 aa] are 0.719 ± 0.0097 and 0.704 ± 0.026.

Regarding VPPRSASASSQR [SPC97 C-terminal 12 aa], the protein stability index stood at 0.689 ± 0.018 under setting [1] and 0.684 ± 0.015 (genetic background: wild type).

Take VPQEDDRLHKLK [AIM3 C-terminal 12 aa]: the protein stability index by setting is: under setting [1], 0.701 ± 0.016; (genetic background: wild type) 0.765 ± 0.039. As for VQLIDGPEEMHR [SHO1 C-terminal 12 aa], the protein stability index is, setting by setting: under setting [1], 0.726 ± 0.009; (genetic background: wild type) 0.663 ± 0.008. Regarding VQWSRPRRGDVL [LAM6 C-terminal 12 aa], the protein stability index is, setting by setting: under setting [1], 0.7079 ± 0.0014; (genetic background: wild type) 0.703 ± 0.051.
